Numbering of substitutions follows the chain as printed. In names and notes the source's numbering stands.
T1: His-CEP290-N (aa 1–887) (Drosophila, UniProt Q9W0M1 1-887)
T1 construct: Drosophila centrosomal protein 290 (CEP290); Cloned into pET28a; also called CEP290 N-terminus; source: E. coli BL21 (DE3), purified (His resin)
T1 sequence (looked up): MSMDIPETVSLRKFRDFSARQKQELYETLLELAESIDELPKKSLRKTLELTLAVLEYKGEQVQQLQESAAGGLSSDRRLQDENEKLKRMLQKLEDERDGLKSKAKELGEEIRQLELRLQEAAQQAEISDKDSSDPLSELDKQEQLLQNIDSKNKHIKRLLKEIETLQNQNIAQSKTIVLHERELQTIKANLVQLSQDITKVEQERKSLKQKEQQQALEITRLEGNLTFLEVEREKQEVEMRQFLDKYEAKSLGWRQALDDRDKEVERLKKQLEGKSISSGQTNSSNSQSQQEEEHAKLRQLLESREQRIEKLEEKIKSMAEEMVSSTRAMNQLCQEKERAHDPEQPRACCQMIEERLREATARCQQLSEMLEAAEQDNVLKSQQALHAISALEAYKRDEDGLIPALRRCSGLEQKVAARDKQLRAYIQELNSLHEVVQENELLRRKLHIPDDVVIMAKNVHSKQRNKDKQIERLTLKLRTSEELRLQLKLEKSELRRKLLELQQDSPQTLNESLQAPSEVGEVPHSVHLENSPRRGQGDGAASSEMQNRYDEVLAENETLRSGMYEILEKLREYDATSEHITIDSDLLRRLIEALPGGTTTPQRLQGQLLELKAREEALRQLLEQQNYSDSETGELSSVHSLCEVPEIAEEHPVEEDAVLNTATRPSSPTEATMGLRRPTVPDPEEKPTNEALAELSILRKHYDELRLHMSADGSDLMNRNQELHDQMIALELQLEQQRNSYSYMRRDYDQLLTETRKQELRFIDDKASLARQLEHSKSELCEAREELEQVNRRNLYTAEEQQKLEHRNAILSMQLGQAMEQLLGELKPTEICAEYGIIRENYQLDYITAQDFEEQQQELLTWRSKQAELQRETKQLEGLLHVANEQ

B1: GST-DZIP1-C (aa 294–737) (domain or fragment, Drosophila, UniProt Q9VC70 294-737, looked up)
chain: DINKRLEGLSHALEQSKQASASTPPLEDRVATPCLEDLERILTEKVAEIGKVSAHRLEEVVYHLEEGYKEKLGALERELKQLSVQKVQPEPVQTVPVASKIPKPVVRKEETNIDRIRKQVESEFLKQKHDDDTYSIEEAPRKGSEKPFPQLVTQVQVVEKEQPSAGSSDSNPTYTKSPREPAPNKQETKEATDVSDSLSQEETENEEERSLTEEEGTDVPTSGSEAAREDPTPKTIKPSGRIIKSPQKPLTRKDARKMVNRKLMSHGFDMKSKGISHNSLKRVNSELTEHRNKLKLQHPHFYATRNRIRKFVEKLCSAKFSERAEMLLKHKSPLKPMEVPGKGIPRSAISEKSEEDIASSQGEEQTDEQTDSSEQQTRSPSPQRLVSRDFKARLEEILVKPAATIRGASKSSLSSRPVPLPRKRVMFNTTEDGKSFNDSDDNLK
notes: Cloned into pGEX-4T-1; also called C-terminus of DZIP1; source: E. coli BL21 (DE3), purified (Glutathione Sepharose)
B2: CEP290 N (aa 401–650) (domain or fragment, Drosophila, UniProt Q9W0M1 401-650, looked up)
chain: GLIPALRRCSGLEQKVAARDKQLRAYIQELNSLHEVVQENELLRRKLHIPDDVVIMAKNVHSKQRNKDKQIERLTLKLRTSEELRLQLKLEKSELRRKLLELQQDSPQTLNESLQAPSEVGEVPHSVHLENSPRRGQGDGAASSEMQNRYDEVLAENETLRSGMYEILEKLREYDATSEHITIDSDLLRRLIEALPGGTTTPQRLQGQLLELKAREEALRQLLEQQNYSDSETGELSSVHSLCEVPEIAE
notes: Drosophila centrosomal protein 290 (CEP290); This construct is not described in the methods; probably His-tagged and made in E. coli like His-CEP290-N
B3: CEP290 N (aa 651–887) (domain or fragment, Drosophila, UniProt Q9W0M1 651-887, looked up)
chain: EHPVEEDAVLNTATRPSSPTEATMGLRRPTVPDPEEKPTNEALAELSILRKHYDELRLHMSADGSDLMNRNQELHDQMIALELQLEQQRNSYSYMRRDYDQLLTETRKQELRFIDDKASLARQLEHSKSELCEAREELEQVNRRNLYTAEEQQKLEHRNAILSMQLGQAMEQLLGELKPTEICAEYGIIRENYQLDYITAQDFEEQQQELLTWRSKQAELQRETKQLEGLLHVANEQ
notes: as for B2
B4: His-Rab8 (natural protein, Drosophila, UniProt O18338 1-207, looked up)
chain: MAKTYDYLFKLLLIGDSGVGKTCILFRFSEDAFNTTFISTIGIDFKIRTIELDNKKIKLQIWDTAGQERFRTITTAYYRGAMGIMLVYDITQEKSFENIKNWIRNIEENASADVEKMLLGNKCELTDKRQVSKERGEQLAIEYGIKFMETSAKASINVEEAFLTLASDIKAKTEKRMEANNPPKGGHQLKPMDSRTKDSWLSRCSLL
notes: Drosophila Rab8; Cloned into pET28a; source: E. coli BL21 (DE3), purified (His resin)
B5: His-Rab8^T22N (natural protein, Drosophila, UniProt O18338 1-207, looked up)
chain: B4 chain with T22N
notes: Drosophila Rab8 with T22N; Cloned into pET28a; also called Rab8^GDP-mimicking mutant; source: E. coli BL21 (DE3), purified (His resin)
B6: GST-DZIP1-N (aa 1–293) (domain or fragment, Drosophila, UniProt Q9VC70 1-293, looked up)
chain: MGFKGKYPQMVRETGFKLRQYRDGPLDWRLMGSYETERILREQNFELVDKALTHLSEAPLGTVLETHILDSGIAKYFVMSQYAIQYLMCCRTYLDECVTDLKEAHTTAQEEIATLRKSLSESNNEVVQLHKRITQIEAIREVVYPCHLCTKNFISNEALNVHIGRKHRVASPPSLTSATGKEKDRDKATDVHLINTIKMELEIKQLKERLNAAERNIKERSTGSKRVSPRQEQRHVGIQSNLAEPKEKDEDSGEARQSEASERKEQLTGLAERLSNFEEWQTQLKQSNEQFIQ
notes: Cloned into pGEX-4T-1; also called N-terminus of DZIP1; source: E. coli BL21 (DE3), purified (Glutathione Sepharose)

What was measured:
Assay in all cases: pull-down; GST pull-down: purified His-tagged proteins incubated with GST, GST-DZIP1-N or GST-DZIP1-C in 25 mM Tris-HCl pH 7.4, 150 mM NaCl, 0.5% Triton X-100, 1 mM dithiothreitol, 10% glycerol, overnight at 4°C; blot with anti-His antibodies
Details in all cases: both partners purified
His-CEP290-N (aa 1–887) = target: T1, His-CEP290-N (aa 1–887)
GST-DZIP1-N (aa 1–293) = target: B6
GST-DZIP1-C (aa 294–737) = target: B1

Binder | binding result (His-CEP290-N (aa 1–887)) | binding result (GST-DZIP1-N (aa 1–293)) | binding result (GST-DZIP1-C (aa 294–737))
B1 | binds |  | 
B2 |  | binds | 
B3 |  | binds | binds
B4 |  | binds | 
B5 |  | binds | 
B6 | binds |  | 

From PMC7793253, “CEP290 is essential for the initiation of ciliary transition zone assembly” (PLoS Biology, 2020)
